These results are taken from IntAct's records for PubMed 35512704.

The labels stand for the following.
B1: Speckle-type POZ protein (Homo sapiens), O43791 (parent)
chain: MSRVPSPPPPAEMSSGPVAESWCYTQIKVVKFSYMWTINNFSFCREEMGEVIKSSTFSSGANDKLKWCLRVNPKGLDEESKDYLSLYLLLVSCPKSEVRAKFKFSILNAKGEETKAMESQRAYRFVQGKDWGFKKFIRRDFLLDEANGLLPDDKLTLFCEVSVVQDSVNISGQNTMNMVKVPECRLADELGGLWENSRFTDCCLCVAGQEFQAHKAILAARSPVFSAMFEHEMEESKKNRVEINDVEPEVFKEMMCFIYTGKAPNLDKMADDLLAAADKYALERLKVMCEDALCSNLSVENAAEILILADLHSADQLKTQAVDFINYHASDVLETSGWKSMVVSHPHLVAEAYRSLASAQCPFLGPPRKRLKQS
partner: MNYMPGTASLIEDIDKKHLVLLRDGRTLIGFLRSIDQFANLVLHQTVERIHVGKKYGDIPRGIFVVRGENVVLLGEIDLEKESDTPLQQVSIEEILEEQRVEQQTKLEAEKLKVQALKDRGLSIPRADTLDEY
B2: Speckle-type POZ protein (Homo sapiens), O43791 (parent)
chain: B1 chain
partner: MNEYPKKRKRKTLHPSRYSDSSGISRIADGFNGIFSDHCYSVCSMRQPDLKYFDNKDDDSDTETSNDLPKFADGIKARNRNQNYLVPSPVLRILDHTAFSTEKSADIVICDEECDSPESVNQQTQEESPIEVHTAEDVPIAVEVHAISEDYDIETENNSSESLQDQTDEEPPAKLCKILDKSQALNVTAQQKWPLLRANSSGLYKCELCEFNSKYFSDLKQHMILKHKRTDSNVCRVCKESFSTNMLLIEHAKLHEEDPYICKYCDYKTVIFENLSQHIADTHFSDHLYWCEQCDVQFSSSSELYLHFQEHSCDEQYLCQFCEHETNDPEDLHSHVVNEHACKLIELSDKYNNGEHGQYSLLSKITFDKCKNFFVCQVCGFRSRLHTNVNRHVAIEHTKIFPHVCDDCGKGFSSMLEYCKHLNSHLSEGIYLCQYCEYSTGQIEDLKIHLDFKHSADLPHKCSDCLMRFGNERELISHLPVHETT
B3: Speckle-type POZ protein (Homo sapiens), O43791 (parent)
chain: B1 chain
partner: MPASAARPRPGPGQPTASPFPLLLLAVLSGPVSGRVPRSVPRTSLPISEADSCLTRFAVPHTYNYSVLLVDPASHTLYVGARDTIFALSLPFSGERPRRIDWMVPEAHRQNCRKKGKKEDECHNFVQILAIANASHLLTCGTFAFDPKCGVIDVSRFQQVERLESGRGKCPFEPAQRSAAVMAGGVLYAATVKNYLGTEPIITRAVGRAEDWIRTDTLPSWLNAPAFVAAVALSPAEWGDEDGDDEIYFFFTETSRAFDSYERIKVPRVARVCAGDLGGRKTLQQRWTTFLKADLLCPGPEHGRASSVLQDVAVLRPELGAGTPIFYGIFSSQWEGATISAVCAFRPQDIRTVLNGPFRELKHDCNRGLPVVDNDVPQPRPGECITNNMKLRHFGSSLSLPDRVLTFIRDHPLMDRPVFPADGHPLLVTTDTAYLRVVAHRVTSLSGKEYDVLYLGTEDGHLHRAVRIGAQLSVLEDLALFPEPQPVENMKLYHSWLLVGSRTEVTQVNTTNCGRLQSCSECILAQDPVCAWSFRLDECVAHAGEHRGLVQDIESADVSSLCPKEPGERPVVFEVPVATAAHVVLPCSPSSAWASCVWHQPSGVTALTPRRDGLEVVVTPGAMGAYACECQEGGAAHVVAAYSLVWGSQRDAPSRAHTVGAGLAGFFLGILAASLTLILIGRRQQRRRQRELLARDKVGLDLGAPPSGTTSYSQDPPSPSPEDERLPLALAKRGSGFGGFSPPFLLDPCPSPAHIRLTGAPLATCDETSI
B4: Speckle-type POZ protein (Homo sapiens), O43791 (parent)
chain: B1 chain
partner: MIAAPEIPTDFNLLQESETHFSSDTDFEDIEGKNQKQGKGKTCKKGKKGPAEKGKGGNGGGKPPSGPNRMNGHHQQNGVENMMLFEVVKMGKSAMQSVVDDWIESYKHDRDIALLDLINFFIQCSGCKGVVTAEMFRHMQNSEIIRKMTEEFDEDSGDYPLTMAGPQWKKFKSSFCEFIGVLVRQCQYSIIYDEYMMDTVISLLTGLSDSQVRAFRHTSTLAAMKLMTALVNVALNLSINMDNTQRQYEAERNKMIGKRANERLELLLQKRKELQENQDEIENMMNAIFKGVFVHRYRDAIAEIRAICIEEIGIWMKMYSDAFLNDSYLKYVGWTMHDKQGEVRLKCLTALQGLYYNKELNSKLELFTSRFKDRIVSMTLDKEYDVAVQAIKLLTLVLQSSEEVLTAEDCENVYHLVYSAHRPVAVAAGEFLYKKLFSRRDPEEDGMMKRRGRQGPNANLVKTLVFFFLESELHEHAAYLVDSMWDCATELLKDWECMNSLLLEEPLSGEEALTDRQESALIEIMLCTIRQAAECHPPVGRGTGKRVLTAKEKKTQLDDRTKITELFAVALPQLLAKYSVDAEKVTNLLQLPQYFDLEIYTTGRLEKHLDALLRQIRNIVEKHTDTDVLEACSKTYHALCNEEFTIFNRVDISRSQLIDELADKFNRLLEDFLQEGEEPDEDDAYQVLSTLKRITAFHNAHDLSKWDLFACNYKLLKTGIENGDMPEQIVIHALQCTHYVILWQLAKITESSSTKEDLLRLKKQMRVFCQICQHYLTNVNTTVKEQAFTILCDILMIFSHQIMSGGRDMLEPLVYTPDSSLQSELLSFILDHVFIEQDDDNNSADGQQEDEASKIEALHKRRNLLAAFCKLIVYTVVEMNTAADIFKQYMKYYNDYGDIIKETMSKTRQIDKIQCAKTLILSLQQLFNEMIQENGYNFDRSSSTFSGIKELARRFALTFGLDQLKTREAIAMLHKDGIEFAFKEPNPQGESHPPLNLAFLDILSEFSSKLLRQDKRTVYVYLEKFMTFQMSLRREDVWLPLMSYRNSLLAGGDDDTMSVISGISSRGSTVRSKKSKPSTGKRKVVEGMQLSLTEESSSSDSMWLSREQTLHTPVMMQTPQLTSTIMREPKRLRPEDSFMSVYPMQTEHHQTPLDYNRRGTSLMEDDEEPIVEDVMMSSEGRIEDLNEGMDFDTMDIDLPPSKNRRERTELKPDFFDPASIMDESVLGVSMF
B5: Speckle-type POZ protein (Homo sapiens), O43791 (parent)
chain: B1 chain
partner: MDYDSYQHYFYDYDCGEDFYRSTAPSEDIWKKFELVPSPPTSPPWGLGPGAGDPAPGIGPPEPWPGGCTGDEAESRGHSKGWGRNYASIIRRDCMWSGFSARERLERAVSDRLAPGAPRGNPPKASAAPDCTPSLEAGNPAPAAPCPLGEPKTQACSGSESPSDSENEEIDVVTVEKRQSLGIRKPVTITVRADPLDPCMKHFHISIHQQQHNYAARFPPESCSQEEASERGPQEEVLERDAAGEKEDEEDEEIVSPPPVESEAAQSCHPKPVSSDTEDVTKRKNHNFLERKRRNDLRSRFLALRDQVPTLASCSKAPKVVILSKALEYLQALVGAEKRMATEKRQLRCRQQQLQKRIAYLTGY
B6: Speckle-type POZ protein (Homo sapiens), O43791 (parent)
chain: B1 chain
partner: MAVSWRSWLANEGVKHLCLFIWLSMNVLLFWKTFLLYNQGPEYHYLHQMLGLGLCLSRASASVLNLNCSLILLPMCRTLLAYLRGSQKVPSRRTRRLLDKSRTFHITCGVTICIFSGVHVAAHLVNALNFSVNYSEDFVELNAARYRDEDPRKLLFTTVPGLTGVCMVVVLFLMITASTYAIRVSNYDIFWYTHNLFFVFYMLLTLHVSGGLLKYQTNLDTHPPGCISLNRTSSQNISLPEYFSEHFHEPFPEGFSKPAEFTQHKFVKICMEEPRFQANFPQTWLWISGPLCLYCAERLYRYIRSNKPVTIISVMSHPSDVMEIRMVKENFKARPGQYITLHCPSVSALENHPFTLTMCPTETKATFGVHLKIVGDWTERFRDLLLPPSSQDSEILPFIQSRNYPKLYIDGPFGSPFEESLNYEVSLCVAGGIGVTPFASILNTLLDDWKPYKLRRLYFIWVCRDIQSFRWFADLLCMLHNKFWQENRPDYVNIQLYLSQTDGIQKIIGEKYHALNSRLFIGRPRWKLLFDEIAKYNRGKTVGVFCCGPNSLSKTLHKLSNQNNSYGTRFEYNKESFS

One assay covers variants of B1. Particulars: with lsm1_human LSM1, O15116.
On to Y87C, for which the “effect of a mutation on the interaction” value is recorded as “with no effect”.

In a further assay the parent is B2. The note with it: with zn639_human ZNF639, Q9UID6.
As for F133L, the “effect of a mutation on the interaction” value is recorded as “with no effect”.

In the next assay the parent is B2. Particulars: with zn639_human ZNF639, Q9UID6. This is another data set of the same source.
For F133V, the “effect of a mutation on the interaction” value is “with no effect”.

Variants of B2 are the subject of a further assay. The note with it: with zn639_human ZNF639, Q9UID6. The source holds these as a separate data set.
Regarding F102C, the “effect of a mutation on the interaction” value is “with no effect”.

Variants of B3 are the subject of another assay. Particulars: with sem4f_human SEMA4F.
F133L: the “effect of a mutation on the interaction” value is on record as “with no effect”.

Variants of B3 are the subject of another assay. The note with it: with sem4f_human SEMA4F. This is another data set of the same source.
Regarding F133V, the “effect of a mutation on the interaction” value is “with no effect”.

The next assay covers variants of B3. The note with it: with sem4f_human SEMA4F. This is another data set of the same source.
Turning to Y87C, the “effect of a mutation on the interaction” value is on record as “with no effect”.

The next assay covers variants of B3. The note with it: with sem4f_human SEMA4F. This is another data set of the same source.
Consider F102C, for which the “effect of a mutation on the interaction” value is recorded as “with no effect”.

The variants in a further assay derive from B4. The note with it: with stag2_human STAG2, Q8N3U4.
As for F102C, the “effect of a mutation on the interaction” value is listed as “with no effect”.

Variants of B4 are the subject of another assay. The note with it: with stag2_human STAG2, Q8N3U4. This is another data set of the same source.
For Y87C, the “effect of a mutation on the interaction” value is listed as “with no effect”.

Variants of B4 are the subject of another assay. The note with it: with stag2_human STAG2, Q8N3U4. The source holds these as a separate data set.
For the variant F133V, the “effect of a mutation on the interaction” value is listed as “with no effect”.

The variants in the next assay derive from B4. The note with it: with stag2_human STAG2, Q8N3U4. The source holds these as a separate data set.
For the variant F133L, the “effect of a mutation on the interaction” value is recorded as “with no effect”.

The variants in a further assay derive from B5. Particulars: with mycl_human MYCL.
For the variant F133L, the “effect of a mutation on the interaction” value was “with no effect”.

Variants of B5 are the subject of another assay. Particulars: with mycl_human MYCL. The source holds these as a separate data set.
For the variant Y87C, the “effect of a mutation on the interaction” value was “with no effect”.

Another assay covers variants of B6. The note with it: with nox4_human NOX4, Q9NPH5.
Turning to Y87C, the “effect of a mutation on the interaction” value was “with no effect”.
